In patent publication US20250302986A1, “NOVEL PEPTIDE, USGAES THEREOF AND PHARMACEUTICAL COMPOSITION HAVING THE SAME” (Taipei Medical University, priority 2024, published 2025):

Assays:
[1] = target: T1, mouse CD80 recombinant protein (Mus musculus, UniProt Q00609); assay: Phage display screening and enzyme-linked immunosorbent assay screening for CD80 binding; conditions: peptide derived from ELISA-positive phage colonies
T1 construct: Fc (Fc chimera); His-tag; purchased R&D Systems 740-B1
Description: In ‘Phage Display Screening”, biopanning is applied via phage display technology. First, the G protein magnetic beads (product name: Dynabeads™ Protein G; manufacturer: Invitrogen) are added to mix with the phage peptide library (product name: PhD-12 Phage Display Peptide Library; manufacturer: New England Biolabs), thus the mixture is incubated for 1 hour at 4° C. ambient conditions. Then, a magnet is used to remove the G protein magnetic beads to exclude phages bound to the G protein magnetic beads in the phage peptide library, thereby obtaining a purified phage peptide library. Continuously, the bait carrier is added to the purified phage peptide library and incubated overnight at 4° C. ambient conditions. The bait carrier is magnetic beads immobilized with mouse CD80 recombinant protein (product name: Recombinant Mouse B7-1/CD80 Fc Chimera His-tag Protein, CF; manufacturer: R&D Systems; catalog number: 740-B1). Therefore, the phages in the purified phage peptide library that bind to the mouse CD80 recombinant protein will be bound to the bait carrier, and then the bait carrier will be separated using the magnet. Then the bait carrier is rinsed with cleaning solution to eliminate phages with weak binding force. The cleaning solution is phosphate buffered saline (PBS) containing 0.1% (v/v) polysorbate-20 (Tween 20). […]

[2] = target: T2, Recombinant Mouse B7-1/CD80 Fc Chimera His-tag Protein, CF (R&D Systems, catalog number 740-B1) (mouse, UniProt Q00609 38-245); assay: phage ELISA on plate-coated mouse CD80 recombinant protein, anti-M13 HRP, absorbance at 450 nm
T2 construct: Bought reagent; everywhere else it is mouse; also called mouse CD80 recombinant protein; bait; Fc part of the bought chimera not given; His-tag
T2 sequence (looked up): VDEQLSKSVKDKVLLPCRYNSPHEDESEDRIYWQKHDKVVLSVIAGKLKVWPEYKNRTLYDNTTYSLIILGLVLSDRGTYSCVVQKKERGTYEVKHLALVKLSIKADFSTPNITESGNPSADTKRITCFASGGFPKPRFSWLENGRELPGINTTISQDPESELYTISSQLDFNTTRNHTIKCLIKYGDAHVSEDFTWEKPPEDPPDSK
Description: The PEG8000/NaCl contains 20% (v/v) PEG8000 (product name: Poly (ethylene glycol); manufacturer: Sigma-Aldrich; Cat. No.: P5413-1KG) and 2.5M NaCl (product name: Sodium chloride; manufacturer: Honeywell fluka; Cat. No.: 31434S-1KG). The above steps are repeated for five rounds in total. In the fourth and fifth rounds, phage clones will be randomly selected for culture, and used in the subsequent enzyme-linked immunosorbent assay (ELISA) to screen out desired phages.
In the “Enzyme Combined Immunosorbent Assay Screening”, the mouse CD80 recombinant protein is first fixed in the wells of a microplate (product name: Clear C-Shaped Immuno Nonsterile 96-Well Plates; manufacturer: Thermo Fisher Scientific; Cat. No.: 446612), and then the phage clones randomly selected in the fourth and fifth rounds of the “Phage Display Screening” are mixed with the diluent at a volume ratio of 1:2 to obtain a phage dilution, which is a phosphate buffered saline comprising 3% (v/v) bovine serum albumin (BSA) and 0.1% (v/v) polysorbate-20. […] Constantly, a microplate reader is adopted to measure the absorbance at 450 nm to confirm whether the phages in each grid of the microplate are still bound to the mouse CD80 recombinant protein in the microplate. […]

T1 sequence (Q00609 with tags, fused parts or gaps limits assumed): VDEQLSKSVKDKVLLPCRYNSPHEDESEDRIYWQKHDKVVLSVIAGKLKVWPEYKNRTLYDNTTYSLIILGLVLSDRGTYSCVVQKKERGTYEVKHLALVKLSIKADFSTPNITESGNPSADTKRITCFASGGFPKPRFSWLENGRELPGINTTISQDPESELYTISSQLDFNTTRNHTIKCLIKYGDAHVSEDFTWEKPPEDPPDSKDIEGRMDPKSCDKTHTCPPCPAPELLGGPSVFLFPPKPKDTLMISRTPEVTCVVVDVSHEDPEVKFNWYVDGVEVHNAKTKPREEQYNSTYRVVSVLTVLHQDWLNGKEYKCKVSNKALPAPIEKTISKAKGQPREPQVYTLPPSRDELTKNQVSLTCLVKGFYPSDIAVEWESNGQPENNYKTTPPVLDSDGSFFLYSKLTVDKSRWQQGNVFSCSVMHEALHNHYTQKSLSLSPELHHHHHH

Question: With “VLMGDPSVWWTY [first peptide, peptide from phage display screening against mouse CD80 recombinant protein]” as the molecule, how does the “binding to CD80 protein” value [1] read?
Answer: can indeed bind to the CD80 protein

B1: second peptide (YLIYEEEPLNSM) (peptide)
peptide: YLIYEEEPLNSM
notes: In the ELISA screening the peptide stood on an M13 phage clone from the PhD-12 Phage Display Peptide Library
Question: Does B1 bind [2]?
Answer: binds

B2: first peptide (VLMGDPSVWWTY) (peptide)
peptide: VLMGDPSVWWTY
notes: In the ELISA screening the peptide stood on an M13 phage clone from the PhD-12 Phage Display Peptide Library (New England Biolabs); also called novel peptide
Question: Does B2 bind [2]?
Answer: binds
